According to patent publication US20170313754A1 (PROTAGONIST THERAPEUTICS, published 2017):
Numbered stars: 1 amine (or outer) side, 2 acyl side, 3 side chain; on linkers, the order of the positions; unused ones are H or OH. Bridge positions count the residues as written; N and C are the ends. Square brackets hold non-standard residues; d marks the D form. Primed or numbered codes have the meaning given here. Ends that are not written are not given here. * marks the point of attachment. Ida = iminodiacetic acid, O=C(CN(CC(=O)[*:3])[*:1])[*:2]; PEG3′ = NH2CH2CH2(OCH2CH2)3CH2CH2CO2H (PEG3 linker); Dip = N[C@H](C(=O)O)C(c1ccccc1)c1ccccc1; pGlu = O=C1CC[C@@H](C(=O)O)N1; β3hP = O=C(O)C[C@@H]1CCCN1; Isovaleryl = CC(C)CC(=O)*; Isobutyryl = CC(C)C(=O)*; Octanoyl = CCCCCCCC(=O)*; Sar = CNCC(=O)O

T1: human ferroportin (SLC40A1) fused in frame with GFP, stably expressed in HEK293 cells (human, UniProt Q9NP59 1-571)
T1 sequence (looked up): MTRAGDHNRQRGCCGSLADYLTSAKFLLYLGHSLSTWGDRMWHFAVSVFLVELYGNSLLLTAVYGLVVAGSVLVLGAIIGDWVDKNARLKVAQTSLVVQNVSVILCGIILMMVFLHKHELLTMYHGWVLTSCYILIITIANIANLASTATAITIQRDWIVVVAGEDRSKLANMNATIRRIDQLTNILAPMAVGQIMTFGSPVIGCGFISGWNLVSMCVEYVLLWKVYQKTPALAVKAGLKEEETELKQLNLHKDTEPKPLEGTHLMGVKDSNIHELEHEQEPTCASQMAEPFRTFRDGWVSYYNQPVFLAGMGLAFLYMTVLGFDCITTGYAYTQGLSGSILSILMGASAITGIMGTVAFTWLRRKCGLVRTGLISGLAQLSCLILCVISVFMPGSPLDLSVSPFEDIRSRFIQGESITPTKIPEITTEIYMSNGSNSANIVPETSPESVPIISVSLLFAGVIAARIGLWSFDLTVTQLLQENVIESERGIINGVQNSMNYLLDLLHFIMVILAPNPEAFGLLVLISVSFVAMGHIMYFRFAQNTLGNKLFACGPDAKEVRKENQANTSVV

T2: human ferroportin (SLC40A1) fused in frame with GFP, stably expressed in HEK293 cells (human, UniProt Q9NP59 1-571)
T2 sequence (looked up): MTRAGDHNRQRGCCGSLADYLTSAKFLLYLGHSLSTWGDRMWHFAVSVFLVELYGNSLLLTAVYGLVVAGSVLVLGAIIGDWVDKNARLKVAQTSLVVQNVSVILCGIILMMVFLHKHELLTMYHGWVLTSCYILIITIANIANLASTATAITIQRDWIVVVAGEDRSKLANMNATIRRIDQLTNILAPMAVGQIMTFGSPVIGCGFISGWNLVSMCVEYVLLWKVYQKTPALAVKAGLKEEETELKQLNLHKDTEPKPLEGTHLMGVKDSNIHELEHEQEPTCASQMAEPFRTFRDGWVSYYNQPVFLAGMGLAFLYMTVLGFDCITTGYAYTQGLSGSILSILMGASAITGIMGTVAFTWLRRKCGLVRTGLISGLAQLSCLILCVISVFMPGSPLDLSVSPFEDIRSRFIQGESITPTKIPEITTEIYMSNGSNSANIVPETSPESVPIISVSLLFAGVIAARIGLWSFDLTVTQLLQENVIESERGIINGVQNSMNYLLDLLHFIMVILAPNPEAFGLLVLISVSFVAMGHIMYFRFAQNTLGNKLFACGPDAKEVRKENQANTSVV


Experiments:
[1] = target: T1, human ferroportin (SLC40A1) fused in …; experiment: cell-based or functional assay
[2] = target: T2, human ferroportin (SLC40A1) fused in …; experiment: cell-based or functional assay; remark: listed apart in the source

| Binder | Potency EC50 (nM), ferroportin-GFP internalization/degradation [2] | further results |
| --- | --- | --- |
| Isovaleryl-THFPCIIFGPRSKGWVCK-NH2 (disulfide 5-17 (inferred)) [Isovaleric acid-THFPCIIFGPRSKGWVCK-NH2] |  | Potency EC50 (nM) [1]: > 10000 nM |
| Isobutyryl-DTHFPICIFVCHRSKGCYRRCR-NH2 (disulfide 11-17, 7-21; SMILES CC[C@H](C)[C@@H]1NC(=O)[C@@H](NC(=O)[C@@H](NC(=O)[C@@H]2CCCN2C(=O)[C@H](Cc2ccccc2)NC(=O)[C@H](Cc2c[nH]cn2)NC(=O)[C@@H](NC(=O)[C@H](CC(=O)O)NC(=O)C(C)C)[C@@H](C)O)[C@@H](C)CC)CSSC[C@@H](C(=O)N[C@@H](CCCNC(=N)N)C(N)=O)NC(=O)[C@H](CCCNC(=N)N)NC(=O)[C@H](CCCNC(=N)N)NC(=O)[C@H](Cc2ccc(O)cc2)NC(=O)[C@@H]2CSSC[C@H](NC(=O)[C@H](C(C)C)NC(=O)[C@H](Cc3ccccc3)NC1=O)C(=O)N[C@@H](Cc1c[nH]cn1)C(=O)N[C@@H](CCCNC(=N)N)C(=O)N[C@@H](CO)C(=O)N[C@@H](CCCCN)C(=O)NCC(=O)N2) [Isobutyric acid-DTHFPIC1IFVC2HRSKGC2YRRC1R-NH2, listing 1 of 2 here] |  | Potency EC50 [1]: 93 nM |
| Isovaleryl-DTHFPCIFEPRSKGTCK-NH2 (disulfide 6-16 (inferred)) [Isovaleric acid-DTHFPCIFEPRSKGTCK-NH2] | 57 nM |  |
| H-THFPCIIFGPRSKGWVCK-NH2 (disulfide 5-17 (inferred)) [Hy-THFPCIIFGPRSKGWVCK-NH2] |  | Potency EC50 (nM) [1]: > 10000 nM |
| H-DTHFPCRRFGPRSKGWVC-NH2 (disulfide 6-18 (inferred)) [Hy-DTHFPCRRFGPRSKGWVC-NH2] |  | Potency EC50 (nM) [1]: > 10000 nM |
| H-DTHFPCIIFGGPRSKGWDCK-NH2 (disulfide 6-19 (inferred)) [Hy-DTHFPCIIFGGPRSKGWDCK-NH2] | 679 nM |  |
| H-DTHFPCIDFGPRSKGWVCK-NH2 (disulfide 6-18 (inferred)) [Hy-DTHFPCIDFGPRSKGWVCK-NH2] | > 1000 nM |  |
| H-DTHFPCIIFGGPRSKGWNCK-NH2 (not fully specified (bridges); printed as Hy-DTHFPCIIFGGPRSKGWNCK-NH2; cysteine pairing not given here) [Hy-DTHFPCIIFGGPRSKGWNCK-NH2] | 404 nM |  |
| H-DTHFPCIIFVCHRSKGCYWAVCFW-NH2 (disulfide 11-17, 6-22; SMILES CC[C@H](C)[C@@H]1NC(=O)[C@@H](NC(=O)[C@@H]2CCCN2C(=O)[C@H](Cc2ccccc2)NC(=O)[C@H](Cc2c[nH]cn2)NC(=O)[C@@H](NC(=O)[C@@H](N)CC(=O)O)[C@@H](C)O)CSSC[C@@H](C(=O)N[C@@H](Cc2ccccc2)C(=O)N[C@@H](Cc2c[nH]c3ccccc23)C(N)=O)NC(=O)[C@H](C(C)C)NC(=O)[C@H](C)NC(=O)[C@H](Cc2c[nH]c3ccccc23)NC(=O)[C@H](Cc2ccc(O)cc2)NC(=O)[C@@H]2CSSC[C@H](NC(=O)[C@H](C(C)C)NC(=O)[C@H](Cc3ccccc3)NC(=O)[C@H]([C@@H](C)CC)NC1=O)C(=O)N[C@@H](Cc1c[nH]cn1)C(=O)N[C@@H](CCCNC(=N)N)C(=O)N[C@@H](CO)C(=O)N[C@@H](CCCCN)C(=O)NCC(=O)N2) [Hy-DTHFPC1IIFVC2HRSKGC2YWAVC1FW-NH2] |  | Potency EC50 (nM) [1]: > 10000 nM |
| Isovaleryl-DTHFPCIKFEPHSKEWVCK-NH2 (not fully specified (bridges); cysteine pairing not given here) [Isovaleric acid-DTHFPCIKFEPHSKEWVCK-NH2] | 80 nM |  |
| Isovaleryl-STHAPCIKFEPRSKGWECK-NH2 (disulfide 6-18 (inferred)) [Isovaleric acid-STHAPCIKFEPRSKGWECK-NH2] | > 10000 nM |  |
| Isovaleryl-DTHAPCIKFEPRSK[Sar]WECK-NH2 (disulfide 6-18 (inferred)) [Isovaleric acid-DTHAPCIKFEPRSK-[Sarc]-WECK-NH2] | > 10000 nM |  |
| Isovaleryl-DTEFPCIKFEPRSKEWVCK-NH2 (disulfide 6-18 (inferred)) [Isovaleric acid-DTEFPCIKFEPRSKEWVCK-NH2] | > 1000 nM |  |
| Isovaleryl-DTHAPCIKF[Sar]PRSKGWECK-NH2 (disulfide 6-18 (inferred)) [Isovaleric acid-DTHAPCIKF-[Sarc]-PRSKGWECK-NH2] | > 10000 nM |  |
| [Ida]TH[Dip][β3hP]ICIFGPRSKGWVCM-NH2 (disulfide 7-18 (inferred)) [[Ida]-TH-[Dpa]-[bhPro]-ICIFGPRSKGWVCM-NH2] |  | Potency EC50 [1]: 17 nM |
| Isovaleryl-DTHFPCIIF[PEG3′]C-NH2 (cysteine pairing not given here) [Isovaleric acid-DTHFPCIIF-[PEG3]-C-NH2] | 157 nM |  |
| Isovaleryl-DTHFECIIFGPRSKGWVCK-NH2 (not fully specified (bridges); cysteine pairing not given here) [Isovaleric acid-DTHFECIIFGPRSKGWVCK-NH2] | > 1000 nM |  |
| H-DTHFPIAIFGPRSKGWVAM-NH2 [Hy-DTHFPIAIFGPRSKGWVAM-NH2] |  | Potency EC50 (nM) [1]: > 10000 nM |
| Isovaleryl-DTHFPCIKFEPRSK(Octanoyl)EWVCK-NH2 (disulfide 6-18 (inferred)) [Isovaleric acid-DTHFPCIKFEPRS-K(octanoic acid)-EWVCK-NH2] | 62 nM |  |
| H-DTHFPCINFGPRSKGWVCK-NH2 (disulfide 6-18 (inferred)) [Hy-DTHFPCINFGPRSKGWVCK-NH2] | > 1000 nM |  |
| Isovaleryl-DTHFGCIKFEPRSKEWVCK-NH2 (not fully specified (bridges); cysteine pairing not given here) [Isovaleric acid-DTHFGCIKFEPRSKEWVCK-NH2] | > 1000 nM |  |
| [pGlu]THFPICIFVCHRSKGCYRRCR-NH2 (disulfide 11-17, 7-21; SMILES CC[C@H](C)[C@@H]1NC(=O)[C@@H](NC(=O)[C@@H](NC(=O)[C@@H]2CCCN2C(=O)[C@H](Cc2ccccc2)NC(=O)[C@H](Cc2c[nH]cn2)NC(=O)[C@@H](NC(=O)[C@@H]2CCC(=O)N2)[C@@H](C)O)[C@@H](C)CC)CSSC[C@@H](C(=O)N[C@@H](CCCNC(=N)N)C(N)=O)NC(=O)[C@H](CCCNC(=N)N)NC(=O)[C@H](CCCNC(=N)N)NC(=O)[C@H](Cc2ccc(O)cc2)NC(=O)[C@@H]2CSSC[C@H](NC(=O)[C@H](C(C)C)NC(=O)[C@H](Cc3ccccc3)NC1=O)C(=O)N[C@@H](Cc1c[nH]cn1)C(=O)N[C@@H](CCCNC(=N)N)C(=O)N[C@@H](CO)C(=O)N[C@@H](CCCCN)C(=O)NCC(=O)N2) [pGlu-THFPIC1IFVC2HRSKGC2YRRC1R-NH2] |  | Potency EC50 [1]: 260 nM |
| Isobutyryl-DTHFPICIFVCHRSKGCYRRCR-NH2 (disulfide 11-17, 7-21; SMILES CC[C@H](C)[C@@H]1NC(=O)[C@@H](NC(=O)[C@@H](NC(=O)[C@@H]2CCCN2C(=O)[C@H](Cc2ccccc2)NC(=O)[C@H](Cc2c[nH]cn2)NC(=O)[C@@H](NC(=O)[C@H](CC(=O)O)NC(=O)C(C)C)[C@@H](C)O)[C@@H](C)CC)CSSC[C@@H](C(=O)N[C@@H](CCCNC(=N)N)C(N)=O)NC(=O)[C@H](CCCNC(=N)N)NC(=O)[C@H](CCCNC(=N)N)NC(=O)[C@H](Cc2ccc(O)cc2)NC(=O)[C@@H]2CSSC[C@H](NC(=O)[C@H](C(C)C)NC(=O)[C@H](Cc3ccccc3)NC1=O)C(=O)N[C@@H](Cc1c[nH]cn1)C(=O)N[C@@H](CCCNC(=N)N)C(=O)N[C@@H](CO)C(=O)N[C@@H](CCCCN)C(=O)NCC(=O)N2) [Isobutyric acid-DTHFPIC1IFVC2HRSKGC2YRRC1R-NH2, listing 2 of 2 here] |  | Potency EC50 [1]: 63 nM |
| Isovaleryl-SKHAPCIKFEPRSKGWECK-NH2 (disulfide 6-18 (inferred)) [Isovaleric acid-SKHAPCIKFEPRSKGWECK-NH2] | > 10000 nM |  |
| Isovaleryl-DTHAPCIKFEPRSKEWECK-NH2 (not fully specified (bridges); cysteine pairing not given here) [Isovaleric acid-DTHAPCIKFEPRSKEWECK-NH2] | > 10000 nM |  |
| H-DTHFPCIIFGGPRSRGWVCK-NH2 (not fully specified (bridges); printed as Hy-DTHFPCIIFGGPRSRGWVCK-NH2; cysteine pairing not given here) [Hy-DTHFPCIIFGGPRSRGWVCK-NH2] | 520 nM |  |
